Source: PMC2648068 (Journal of immunology (Baltimore, Md. : 1950), 2009)

Legend:
Assay in all cases: ELISA
recombinant human TLR2 = recombinant human TLR2 (human, UniProt O60603 21-588)
recombinant mouse TLR1 = biological target: T1, recombinant mouse TLR1 (mouse, UniProt Q9EPQ1 26-582)
T1 sequence (looked up): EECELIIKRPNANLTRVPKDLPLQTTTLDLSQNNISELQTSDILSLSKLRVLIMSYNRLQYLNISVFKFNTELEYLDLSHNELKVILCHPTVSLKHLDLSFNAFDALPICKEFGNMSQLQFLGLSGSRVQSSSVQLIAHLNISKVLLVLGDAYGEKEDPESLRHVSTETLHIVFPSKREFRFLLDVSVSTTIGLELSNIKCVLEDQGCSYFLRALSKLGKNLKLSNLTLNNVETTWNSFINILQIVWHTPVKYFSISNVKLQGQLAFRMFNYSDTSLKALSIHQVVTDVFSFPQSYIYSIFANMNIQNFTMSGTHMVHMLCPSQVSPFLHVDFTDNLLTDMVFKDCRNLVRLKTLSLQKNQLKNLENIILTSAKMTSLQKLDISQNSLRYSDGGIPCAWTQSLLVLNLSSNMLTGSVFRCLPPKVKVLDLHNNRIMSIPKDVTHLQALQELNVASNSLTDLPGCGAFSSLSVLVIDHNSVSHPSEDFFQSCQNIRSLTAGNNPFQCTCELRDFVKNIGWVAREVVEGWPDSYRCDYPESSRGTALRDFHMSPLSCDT

recombinant human TLR1 = biological target: T2, recombinant human TLR1 (human, UniProt Q15399 25-580)
T2 sequence (looked up): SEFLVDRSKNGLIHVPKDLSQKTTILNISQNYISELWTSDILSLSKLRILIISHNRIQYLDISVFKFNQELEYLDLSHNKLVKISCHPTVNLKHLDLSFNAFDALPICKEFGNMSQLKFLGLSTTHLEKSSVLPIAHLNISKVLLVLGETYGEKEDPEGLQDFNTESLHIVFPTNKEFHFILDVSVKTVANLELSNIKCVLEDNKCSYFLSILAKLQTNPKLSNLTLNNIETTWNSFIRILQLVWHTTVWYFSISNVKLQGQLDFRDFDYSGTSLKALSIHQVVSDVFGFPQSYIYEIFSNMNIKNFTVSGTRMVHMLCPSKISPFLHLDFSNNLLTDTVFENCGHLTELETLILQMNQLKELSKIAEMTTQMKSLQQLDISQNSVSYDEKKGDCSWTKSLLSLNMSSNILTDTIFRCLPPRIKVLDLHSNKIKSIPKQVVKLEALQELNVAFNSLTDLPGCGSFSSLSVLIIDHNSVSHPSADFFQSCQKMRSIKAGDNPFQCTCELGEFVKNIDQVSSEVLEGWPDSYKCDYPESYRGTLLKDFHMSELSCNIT

recombinant mouse TLR2 = biological target: T3, recombinant mouse TLR2 (mouse, UniProt Q9QUN7 25-587)
T3 sequence (looked up): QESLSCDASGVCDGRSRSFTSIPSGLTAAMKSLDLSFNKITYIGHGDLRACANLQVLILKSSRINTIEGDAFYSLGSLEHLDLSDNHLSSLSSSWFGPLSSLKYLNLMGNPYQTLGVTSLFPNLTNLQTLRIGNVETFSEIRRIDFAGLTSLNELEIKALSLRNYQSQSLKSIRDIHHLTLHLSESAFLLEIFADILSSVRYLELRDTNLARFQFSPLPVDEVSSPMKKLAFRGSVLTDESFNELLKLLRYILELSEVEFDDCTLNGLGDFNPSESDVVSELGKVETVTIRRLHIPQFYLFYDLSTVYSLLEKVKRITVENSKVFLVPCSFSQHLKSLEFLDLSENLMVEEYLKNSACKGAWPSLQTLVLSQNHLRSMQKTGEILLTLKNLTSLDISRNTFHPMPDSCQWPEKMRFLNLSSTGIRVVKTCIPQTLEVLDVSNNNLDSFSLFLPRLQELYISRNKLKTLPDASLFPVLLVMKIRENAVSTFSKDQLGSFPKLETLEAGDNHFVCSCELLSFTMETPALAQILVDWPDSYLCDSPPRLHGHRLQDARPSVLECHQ

Measured: binding result

Chain of recombinant human TLR2 (O60603 21-588): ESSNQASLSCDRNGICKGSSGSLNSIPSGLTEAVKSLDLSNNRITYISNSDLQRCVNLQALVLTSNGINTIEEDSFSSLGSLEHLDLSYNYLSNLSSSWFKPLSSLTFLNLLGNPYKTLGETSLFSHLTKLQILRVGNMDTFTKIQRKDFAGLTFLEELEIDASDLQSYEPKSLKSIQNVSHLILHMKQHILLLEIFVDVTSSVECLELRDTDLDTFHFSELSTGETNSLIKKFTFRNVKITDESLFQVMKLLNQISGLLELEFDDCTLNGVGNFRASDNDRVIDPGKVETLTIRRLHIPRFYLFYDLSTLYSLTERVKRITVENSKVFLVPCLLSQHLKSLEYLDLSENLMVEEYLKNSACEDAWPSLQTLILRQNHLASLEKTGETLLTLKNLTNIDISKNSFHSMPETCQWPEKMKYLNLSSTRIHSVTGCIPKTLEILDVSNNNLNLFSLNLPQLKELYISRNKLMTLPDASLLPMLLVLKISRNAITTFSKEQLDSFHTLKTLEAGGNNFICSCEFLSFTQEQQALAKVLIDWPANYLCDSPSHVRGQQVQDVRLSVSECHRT

B1: LT-IIb-B5, pentameric B subunit of type IIb E. coli enterotoxin (wild-type) (natural protein)
chain: GASQFFKDNCNRTTASLVEGVELTKYISDINNNTDGMYVVSSTGGVWRISRAKDYPDNVMTAEMRKIAMAAVLSGMRVNMCASPASSPNVIWAIELEAE
binds: all assays above
